In patent publication US7947468B2, “Methods” (Medical Research Council, priority 2007, dated 2011):

Assays:
[1] = substrate: CC[C@H](C)[C@H](NC(=O)[C@H](CCC(N)=O)NC(=O)[C@H](CCCNC(=N)N)NC(=O)[C@H](CC(C)C)NC(=O)[C@@H](NC(=O)[C@H](CCCCN)NC(=O)[C@H](Cc1ccc(O)cc1)NC(=O)[C@H](CCCCN)NC(=O)[C@H](CC(=O)O)NC(=O)[C@H](CCCNC(=N)N)NC(=O)CNC(=O)[C@H](CC(C)C)NC(=O)[C@@H](N)CCCNC(=N)N)[C@@H](C)O)C(=O)N[C@@H](CCCNC(=N)N)C(=O)N[C@@H](CCC(N)=O)C(=O)O; assay: Assay of LRRK2 using LRRKtide as substrate (non-mutated enzyme); format: biochemical, human; details: other: non-mutated GST-LRRK2[1326-2527], varying LRRKtide, 0.1 mM ATP, 30 min 30° C.
Protocol: (§1) Assay of LRRK2 using LRRKtide as substrate. Assays were set up in a total volume of 50 μl of Buffer A containing 0.5-0.7 μg of either wild type or mutant forms LRRK2, 10 mM MgCl2 and 0.1 mM [γ^32P]-ATP (300 cpm/pmol) in the presence of 300 μM or the indicated concentration of LRRKtide (RLGRDKYKTLRQIRQ; SEQ ID NO:1) peptide substrate. After incubation for 30 min at 30° C., reactions were terminated by applying 40 μl of the reaction mixture onto P81 phosphocellulose paper and phosphorylation of LRRKtide was quantified following washing the P81 phosphocellulose in 50 mM phosphoric acid and Cherenkov counting. One Unit (U) of LRRK2 activity was defined as the amount of enzyme that catalysed the incorporation of 1 nmol of ^32P into LRRKtide. Km and Vmax parameters were determined by performing the assay described above using varying concentration of LRRKtide. The Km and Vmax parameters were calculated using the Graph-Pad prism programme.

[2] = substrate: CC[C@H](C)[C@H](NC(=O)[C@H](CCC(N)=O)NC(=O)[C@H](CCCNC(=N)N)NC(=O)[C@H](CC(C)C)NC(=O)[C@@H](NC(=O)[C@H](CCCCN)NC(=O)[C@H](Cc1ccc(O)cc1)NC(=O)[C@H](CCCCN)NC(=O)[C@H](CC(=O)O)NC(=O)[C@H](CCCNC(=N)N)NC(=O)CNC(=O)[C@H](CC(C)C)NC(=O)[C@@H](N)CCCNC(=N)N)[C@@H](C)O)C(=O)N[C@@H](CCCNC(=N)N)C(=O)N[C@@H](CCC(N)=O)C(=O)O; assay: Assay of LRRK2 using LRRKtide as substrate (G2019S mutant); format: biochemical, human; details: other: GST-LRRK2[1326-2527, G2019S], varying LRRKtide, 0.1 mM ATP, 30 min 30° C.
Protocol: as §1

Protein | Km [1] | Km [2] | Vmax [2]
GST-LRRK2[1326-2527] (Homo sapiens) (protein, phosphorylated by both non-mutated GST-LRRK2[1326-2527] and GST-LRRK2[1326-2527, G2019S]; made in house; host or cells: HEK 293 cells, pEBG-2T vector) LKKAVPYNRMKLMIVGNTGSGKTTLLQQLMKTKKSDLGMQSATVGIDVKDWPIQIRDKRKRDLVLNVWDFAGREEFYSTHPHFMTQRALYLAVYDLSKGQAEVDAMKPWLFNIKARASSSPVILVGTHLDVSDEKQRKACMSKITKELLNKRGFPAIRDYHFVNATEESDALAKLRKTIINESLNFKIRDQLVVGQLIPDCYVELEKIILSERKNVPIEFPVIDRKRLLQLVRENQLQLDENELPHAVHFLNESGVLLHFQDPALQLSDLYFVEPKWLCKIMAQILTVKVEGCPKHPKGIISRRDVEKFLSKKRKFPKNYMSQYFKLLEKFQIALPIGEEYLLVPSSLSDHRPVIELPHCENSEIIIRLYEMPYFPMGFWSRLINRLLEISPYMLSGRERALRPNRMYWRQGIYLNWSPEAYCLVGSEVLDNHPESFLKITVPSCRKGCILLGQVVDHIDSLMEEWFPGLLEIDICGEGETLLKKWALYSFNDGEEHQKILLDDLMKKAEEGDLLVNPDQPRLTIPISQIAPDLILADLPRNIMLNNDELEFEQAPEFLLGDGSFGSVYRAAYEGEEVAVKIFNKHTSLRLLRQELVVLCHLHHPSLISLLAAGIRPRMLVMELASKGSLDRLLQQDKASLTRTLQHRIALHVADGLRYLHSAMIIYRDLKPHNVLLFTLYPNAAIIAKIADYGIAQYCCRMGIKTSEGTPGFRAPEVARGNVIYNQQADVYSFGLLLYDILTTGGRIVEGLKFPNEFDELEIQGKLPDPVKEYGCAPWPMVEKLIKQCLKENPQERPTSAQVFDILNSAELVCLTRRILLPKNVIVECMVATHHNSRNASIWLGCGHTDRGQLSFLDLNTEGYTSEEVADSRILCLALVHLPVEKESWIVSGTQSGTLLVINTEDGKKRHTLEKMTDSVTCLYCNSFSKQSKQKNFLLVGTADGKLAIFEDKTVKLKGAAPLKILNIGNVSTPLMCLSESTNSTERNVMWGGCGTKIFSFSNDFTIQKLIETRTSQLFSYAAFSDSNIITVVVDTALYIAKQNSPVVEVWDKKTEKLCGLIDCVHFLREVMVKENKESKHKMSYSGRVKTLCLQKNTALWIGTGGGHILLLDLSTRRLIRVIYNFCNSVRVMMTAQLGSLKNVMLVLGYNRKNTEGTQKQKEIQSCLTVWDINLPHEVQNLEKHIEVRKELAEKMRRTSVE | 200 µM |  | 
GST-LRRK2[1326-2527, G2019S] (Homo sapiens; G2019S) (protein, made in house; host or cells: HEK 293 cells, pEBG-2T vector) LKKAVPYNRMKLMIVGNTGSGKTTLLQQLMKTKKSDLGMQSATVGIDVKDWPIQIRDKRKRDLVLNVWDFAGREEFYSTHPHFMTQRALYLAVYDLSKGQAEVDAMKPWLFNIKARASSSPVILVGTHLDVSDEKQRKACMSKITKELLNKRGFPAIRDYHFVNATEESDALAKLRKTIINESLNFKIRDQLVVGQLIPDCYVELEKIILSERKNVPIEFPVIDRKRLLQLVRENQLQLDENELPHAVHFLNESGVLLHFQDPALQLSDLYFVEPKWLCKIMAQILTVKVEGCPKHPKGIISRRDVEKFLSKKRKFPKNYMSQYFKLLEKFQIALPIGEEYLLVPSSLSDHRPVIELPHCENSEIIIRLYEMPYFPMGFWSRLINRLLEISPYMLSGRERALRPNRMYWRQGIYLNWSPEAYCLVGSEVLDNHPESFLKITVPSCRKGCILLGQVVDHIDSLMEEWFPGLLEIDICGEGETLLKKWALYSFNDGEEHQKILLDDLMKKAEEGDLLVNPDQPRLTIPISQIAPDLILADLPRNIMLNNDELEFEQAPEFLLGDGSFGSVYRAAYEGEEVAVKIFNKHTSLRLLRQELVVLCHLHHPSLISLLAAGIRPRMLVMELASKGSLDRLLQQDKASLTRTLQHRIALHVADGLRYLHSAMIIYRDLKPHNVLLFTLYPNAAIIAKIADYSIAQYCCRMGIKTSEGTPGFRAPEVARGNVIYNQQADVYSFGLLLYDILTTGGRIVEGLKFPNEFDELEIQGKLPDPVKEYGCAPWPMVEKLIKQCLKENPQERPTSAQVFDILNSAELVCLTRRILLPKNVIVECMVATHHNSRNASIWLGCGHTDRGQLSFLDLNTEGYTSEEVADSRILCLALVHLPVEKESWIVSGTQSGTLLVINTEDGKKRHTLEKMTDSVTCLYCNSFSKQSKQKNFLLVGTADGKLAIFEDKTVKLKGAAPLKILNIGNVSTPLMCLSESTNSTERNVMWGGCGTKIFSFSNDFTIQKLIETRTSQLFSYAAFSDSNIITVVVDTALYIAKQNSPVVEVWDKKTEKLCGLIDCVHFLREVMVKENKESKHKMSYSGRVKTLCLQKNTALWIGTGGGHILLLDLSTRRLIRVIYNFCNSVRVMMTAQLGSLKNVMLVLGYNRKNTEGTQKQKEIQSCLTVWDINLPHEVQNLEKHIEVRKELAEKMRRTSVE |  | 200 µM | 10 U/mg
